Target: T1, ADAM17 (Homo sapiens, UniProt P78536)
T1 construct: purchased RnD Systems
Assay: SEPARATE assay: human peptidome library digest with ADAM17
Assay type: biochemical
Details: for Adam17 Fold Change: top 20 enriched peptides, human library (90-aa tiles), digest vs mock digest
Procedure: Streptavidin-coupled magnetic beads (Dynabeads M-280 Streptavidin, ThermoFisher Scientific) were washed (TBS, pH 7.4, 0.01% NP40) and resuspended in binding buffer (TBS, pH 7.4, 0.001% NP40) containing 2E9 plaque forming units per 10 μl of bead slurry. End-over-end mixing at room temperature was performed for one hour. Phage-coated beads were washed three times with wash buffer and transferred into two protein LoBind Eppendorf tubes blocked with TBS, pH 7.4 containing 1% BSA.
Digestion occurred overnight at room temperature with end-over-end rotation. […] To remove any residual biotinylated phage that may have been nonspecifically released, the 150 μl supernatant of the quenched digest reaction is then incubated with a fresh 10 μl of slurry volume M280 streptavidin beads (pre-washed three times with wash buffer) in a LoBind Eppendorf tube blocked with TBS, pH 7.4 containing 1% BSA at room temperature for one hour with end-over-end rotation.
10 μl slurry volume of protein G magnetic dynabeads were washed in buffer (TBS, pH 7.4, 0.01% NP40) and then resuspended in 50 μl TBS, pH 7.4, 0.01% NP40 containing 4 μg of M2 FLAG antibody for thirty minutes at room temperature with end-over-end rotation. The 150 μl quenched digest reaction is added to the 10 μl FLAG-coated Protein G beads and incubated for 60 minutes at room temperature with end-over-end rotation to capture phage particles released at the protease digest step. Beads are rinsed once with 100 μl wash buffer and stored at −80° C. until PCR amplification.
Library PCR preparation, high-throughput DNA sequencing, and peptide read count data generation was performed as described previously.^44 Briefly, library peptide inserts are amplified by resuspending 10 μl of FLAG-coated Protein G beads in PCR1 master mix containing the T7-Pep2_PCR1_F forward primer ([…]) (SEQ ID NO:3) and a T7-SEPARATE vector specific reverse primer ([…]) (SEQ ID NO:4), which includes an adapter sequence for sample-specific barcoding and Illumina P7 adapter incorporation during a subsequent PCR2 reaction. The PCR2 amplicons are pooled and sequenced using an Illumina NextSeq instrument in standard output mode to obtain single-end 50 nucleotide reads. Dual indexed sample demultiplexing and clonal read count determination were performed using exact sequence matching. […] To calculate the normalization factor, 100 peptides were randomly selected from the mock digest conditions with a read count ranging between 10 and 40. The median read count value for these 100 peptides is calculated for each sample. The random peptide selection and median calculation is performed 20 times and the average of the 20 median values is calculated for each sample. Finally, the normalization factor is calculated by dividing the average median value for each sample by that for one of the mock digest conditions. Read counts are then converted to normalized read counts by dividing each sample's read count values by the normalization factor. Fold enrichments are calculated for each peptide by dividing their normalized read counts in the digest condition by the normalized read counts in the mock digest condition. The fold enrichments can be visualized in an MA plot by transforming the normalized read count data into a log ratio (M, on the y-axis) and a mean average (A, on the x-axis) between the digest and mock digest conditions.

T1 sequence (P78536 215-824): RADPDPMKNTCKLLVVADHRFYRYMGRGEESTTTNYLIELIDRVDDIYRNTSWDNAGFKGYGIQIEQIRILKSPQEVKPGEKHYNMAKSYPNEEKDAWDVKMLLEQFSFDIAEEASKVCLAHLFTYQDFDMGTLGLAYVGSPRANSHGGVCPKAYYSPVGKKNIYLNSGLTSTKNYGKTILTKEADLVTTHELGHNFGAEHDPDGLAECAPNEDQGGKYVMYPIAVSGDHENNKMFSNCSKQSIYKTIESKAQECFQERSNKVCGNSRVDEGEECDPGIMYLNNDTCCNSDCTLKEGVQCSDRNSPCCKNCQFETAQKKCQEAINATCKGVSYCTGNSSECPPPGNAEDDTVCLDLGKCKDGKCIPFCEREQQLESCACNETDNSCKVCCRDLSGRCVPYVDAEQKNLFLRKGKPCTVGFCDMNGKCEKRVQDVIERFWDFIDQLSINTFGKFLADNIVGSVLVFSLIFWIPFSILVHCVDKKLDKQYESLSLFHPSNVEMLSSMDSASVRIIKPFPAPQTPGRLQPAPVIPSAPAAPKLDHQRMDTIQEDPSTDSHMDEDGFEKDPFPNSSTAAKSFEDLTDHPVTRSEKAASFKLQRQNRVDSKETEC

| Molecule | Adam17 Fold Change [fold] | known substrate peptide identified by SEPARATE (human library, ADAM17, peptide amino acids 496-585) |
| --- | --- | --- |
| RLALPLRSLSASSGWNESCSSQSDISLDHVQRRRSRLKEPPELQSSERAAGSPPAPGTMSKHRGKSSATCRCCVTYCEGENHLRNKSRAE (protein, listed as Homo sapiens) RLALPLRSLSASSGWNESCSSQSDISLDHVQRRRSRLKEPPELQSSERAAGSPPAPGTMSKHRGKSSATCRCCVTYCEGENHLRNKSRAE | 39.89 | – |
| KAGVVTLHSVGPTAATGTTAGTGLLQTSKPLVTSVANTVTTVSLQPEKPVVSGTAVTLSLPAVTFGETSGAAICLPSVKPVVSSAGTTS (protein, listed as Homo sapiens) KAGVVTLHSVGPTAATGTTAGTGLLQTSKPLVTSVANTVTTVSLQPEKPVVSGTAVTLSLPAVTFGETSGAAICLPSVKPVVSSAGTTS | 39.07 | – |
| AIRLANSTASVSRGSMQELDMLAGLRRSHAPQSRSSLNAKPHDSLDLNCDSRDFVAAIISIPTPPANTPDESQPSSPGGGGRAGSTLRNS (protein, listed as Homo sapiens) AIRLANSTASVSRGSMQELDMLAGLRRSHAPQSRSSLNAKPHDSLDLNCDSRDFVAAIISIPTPPANTPDESQPSSPGGGGRAGSTLRNS | 57.97 | – |
| YVAPLTAQPATYRAQPSVSLGAAYRAQPSASLGVGYRTQPMTAQAASYRAQPSVSLGAPYRGQLASPSSQSAAASSLGPYGGAQPSASAL (protein, listed as Homo sapiens) YVAPLTAQPATYRAQPSVSLGAAYRAQPSASLGVGYRTQPMTAQAASYRAQPSVSLGAPYRGQLASPSSQSAAASSLGPYGGAQPSASAL | 39.99 | – |
| IAAKAQLARQQSPSPIRHSPSPVRHVRAPTPSPVRSVSPAARISTSPIRSVRSPLLMRKTQASTVATGPEVPPPWKQEGYVASSSEAEMR (protein, listed as Homo sapiens) IAAKAQLARQQSPSPIRHSPSPVRHVRAPTPSPVRSVSPAARISTSPIRSVRSPLLMRKTQASTVATGPEVPPPWKQEGYVASSSEAEMR | 37.14 | – |
| SPLIAPVMGTVAVSLSSPLLSSTATPPGVSQNLLANPMSNLVLPEAPRLRLAEPLRGGPTGPQSPACVVPTATTKVPLSTEPPQSTQDPE (protein, listed as Homo sapiens) SPLIAPVMGTVAVSLSSPLLSSTATPPGVSQNLLANPMSNLVLPEAPRLRLAEPLRGGPTGPQSPACVVPTATTKVPLSTEPPQSTQDPE | 51.48 | – |
| QSVSPVQAPPPGGSAQLLPGKVLVPLAAPSMSVRGGGAGQPLPLVSPPFSVPVQNGAQPPSKIIQLTPVPVSTPSGLVPPLSPATLPGPT (protein, listed as Homo sapiens) QSVSPVQAPPPGGSAQLLPGKVLVPLAAPSMSVRGGGAGQPLPLVSPPFSVPVQNGAQPPSKIIQLTPVPVSTPSGLVPPLSPATLPGPTA | 57.55 | – |
| … (protein, listed as Homo sapiens) STRPVLASIEPELPMQLVSQDDESGQKKLHGLQAILVHEASGTTAITATATGYQESHLSSARTKQPHDPLVPLSASIELILVEDVRVSPE | 34.57 | – |
| KVATLPLSSRAGAPPAAVPIINMILPTVPALPGPGPGPGRAPPGGLTQPRGTENREVGIGGDQGPHDKGVKRTAEVPVSEASGQAPPAKA (protein, listed as Homo sapiens) KVATLPLSSRAGAPPAAVPIINMILPTVPALPGPGPGPGRAPPGGLTQPRGTENREVGIGGDQGPHDKGVKRTAEVPVSEASGQAPPAKA | 35.48 | – |
| VLNSGARVWPSASALGLTAPPKDAEDRARPASGLRGARVLSEGREPRASLRVQVRPGLDVAAPGVCSLSCPSPPRSSAHPGPRGPLFPAL (protein, listed as Homo sapiens) VLNSGARVWPSASALGLTAPPKDAEDRARPASGLRGARVLSEGREPRASLRVQVRPGLDVAAPGVCSLSCPSPPRSSAHPGPRGPLFPAL | 44.03 | – |
| HSALPFRLQLRRGEARLGEERHFQESGNSSWEILRASKAEEGTYECTAVSRAGTGRAKAQIVVTDPPPQLVPAPNVTVSPGETAVLSCRV (protein, listed as Homo sapiens) HSALPFRLQLRRGEARLGEERHFQESGNSSWEILRASKAEEGTYECTAVSRAGTGRAKAQIVVTDPPPQLVPAPNVTVSPGETAVLSCRV | 43.29 | – |
| EIVPASLQRVRRPVAMVMPARRTPHVQAVQGPLGSPPKRGPLPTEEQRVYRRKELEEVSPETPVVPATTQRTLARPGPEPAPATDERDRV (protein, listed as Homo sapiens) EIVPASLQRVRRPVAMVMPARRTPHVQAVQGPLGSPPKRGPLPTEEQRVYRRKELEEVSPETPVVPATTQRTLARPGPEPAPATDERDRV | 34.93 | – |
| EPEPTPGLVLSKPALEEEEAPRALSLLSLPPKKRSILGLGQARPLEFLRTCYGGSFLVHESFLYKREKAVGDKVYWTCRDHALHGCRSRA (protein, listed as Homo sapiens) EPEPTPGLVLSKPALEEEEAPRALSLLSLPPKKRSILGLGQARPLEFLRTCYGGSFLVHESFLYKREKAVGDKVYWTCRDHALHGCRSRA | 35.48 | – |
| ATPGAPGSSTPGEADIGNTSFGKSGKSGHDSLTVLNPAFLRRTPTVSAASTTSSPVSKHTDAASATAVTISGSKPGTPGTPGGATSGGKI (protein, listed as Homo sapiens) ATPGAPGSSTPGEADIGNTSFGKSGKSGHDSLTVLNPAFLRRTPTVSAASTTSSPVSKHTDAASATAVTISGSKPGTPGTPGGATSGGKI | 39.34 | – |
| PARLLGPSLTSTTPASSSSGSSSRGPSDTSSRFSKEQRGVAQPLAQLRSCPQEEGPRGRGLAARPLENRAGGPVARSEEPGAPLPVAVGT (protein, listed as Homo sapiens) PARLLGPSLTSTTPASSSSGSSSRGPSDTSSRFSKEQRGVAQPLAQLRSCPQEEGPRGRGLAARPLENRAGGPVARSEEPGAPLPVAVGT | 45.89 | – |
| MELQSRPEALAVELARHQNGDLKKQLHERQPRIAALSDKQALGTITAVPVTGPQVSSLQRLAGQGAAVLPQVRPKTLIPDSLPVAPGRDR (protein, listed as Homo sapiens) MELQSRPEALAVELARHQNGDLKKQLHERQPRIAALSDKQALGTITAVPVTGPQVSSLQRLAGQGAAVLPQVRPKTLIPDSLPVAPGRDR | 38.34 | – |
| SSVSTGHTTPLHVTDASSASTGQATPLPVTSLSSVSTGDTTPLPVTSPSSASTGHATPLLVTDTSSASTGHATPLPVTDASSVSTDHATS (protein, listed as Homo sapiens) SSVSTGHTTPLHVTDASSASTGQATPLPVTSLSSVSTGDTTPLPVTSPSSASTGHATPLLVTDTSSASTGHATPLPVTDASSVSTDHATS | 48.17 | – |
| VASN: Vasorin, known ADAM17 substrate; library peptide amino acids 496-585 (protein) peptide: LTYRNLSGPDKRLVTLRLPASLAEYTVTQLRPNATYSVCVMPLGPGRVPEGEEACGEAHTPPAVHSNHAPVTQAREGNLPLLIAPALAAV | – | identified |
| ARQEKLAFQEDSRSTLSRRELDAAHTGTTGQDSDFPVTAASTVDFLKIKKSCEENVCRSLKDCEMEKCPDSCAHEMESVADHEPNKRILG (protein, listed as Homo sapiens) ARQEKLAFQEDSRSTLSRRELDAAHTGTTGQDSDFPVTAASTVDFLKIKKSCEENVCRSLKDCEMEKCPDSCAHEMESVADHEPNKRILG | 34.10 | – |
| PVTSTSSASTGHATPLPVTGLSSATTDDTTRLPVTDVSSASTGQATPLPVTSLSSVSTGDTTPLPVTSPSSASTGHASPLLVTDASSAST (protein, listed as Homo sapiens) PVTSTSSASTGHATPLPVTGLSSATTDDTTRLPVTDVSSASTGQATPLPVTSLSSVSTGDTTPLPVTSPSSASTGHASPLLVTDASSAST | 41.41 | – |
